The values below come from publication PMC12207370, “Macrocyclic Peptide Probes for Immunomodulatory Protein CD59: Potent Modulators of Bacterial Toxin Activity and Antibody‐Dependent Cytotoxicity” (Angewandte Chemie (International Ed. in English), 2025).

In this test the target is T1, biotinylated CD59 (Homo sapiens, UniProt P13987).
T1 construct: Recombinant soluble human CD59 with an additional C-terminal cysteine residue
T1 sequence (P13987 26-102 limits assumed): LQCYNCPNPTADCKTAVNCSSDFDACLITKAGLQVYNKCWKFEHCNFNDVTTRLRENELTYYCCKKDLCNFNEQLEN
Briefly: mRNA-display cyclic peptide screen against CD59-biotin, NGS abundance after 6th selection round. To be noted: for Percentage Seq I: counts normalised by total counts of sample Seq I; for Percentage Seq I / Percentage Seq II: percentage of the pool; for Percentage Seq I / Percentage Seq II / Percentage Average / Percentage of the pool, averaged across the two sequencing samples / Percentage of the pool, Seq I / Percentage of the pool, Seq II: sheet R6; for Percentage Seq II: counts normalised by total counts of sample Seq II; for Percentage Average: percentage of the pool averaged across the two sequencing samples; for Counts Seq I / Counts Seq II: raw NGS counts of peptide sequence; for Counts Seq I: sequencing sample Seq I; for Counts Seq I / Counts Seq II / Counts (raw counts for peptide sequence), Seq I / Counts (raw counts for peptide sequence), Seq II: sheet R6 (6th selection round); for Counts Seq II: sequencing sample Seq II; for Counts (raw counts for peptide sequence), Seq I: NGS sample Seq I; for Counts (raw counts for peptide sequence), Seq II: NGS sample Seq II; for Percentage of the pool, averaged across the two sequencing samples: average of Seq I and Seq II; for Percentage of the pool, Seq I: counts normalised by total counts of NGS sample Seq I; for Percentage of the pool, Seq II: counts normalised by total counts of NGS sample Seq II. From the text:
To discover novel non‐protein CD59 ligands, we screened a library of 10^12 cyclic peptides against CD59 using mRNA‐display (Figure 2a).^[ [23], [24], [25], [26], [27], [28], [29] ^] Briefly, an mRNA library was designed in which the start codon was reprogrammed from Met to N‐chloroacetyl‐D‐Tyr (ClAc‐D‐Tyr), followed by 10–12 randomly encoded natural amino acids, a Cys residue, a (GlySer)3 linker, and a stop codon. […] The total library diversity was 1.51 × 10^13 molecules, comprising 5.02 × 10^12 molecules of each macrocycle size, covering a subset of the maximum theoretical diversity of this library design. Following in vitro translation, ClAc‐D‐Tyr spontaneously reacts with either the C‐terminal Cys or a Cys in the random region, yielding macrocyclic thioether peptides. Hits from the library were identified through iterative enrichment and amplification against biotinylated CD59, then immobilized on streptavidin beads. Fifteen hit sequences (CP‐01 to CP‐15), enriched with abundance >1% relative to the total pool of recovered binders after the 6th round of selection, were synthesized by solid phase peptide synthesis (SPPS), without the (Gly‐Ser)3 linker.
Figure 2 Discovery of macrocyclic peptide ligands with nanomolar CD59 affinity using mRNA display. a) The selection process. PCR = polymerase chain reaction, SPPS = solid phase peptide synthesis. b) Table showing details of the peptides with nanomolar affinity for CD59 as well as the binding affinity of the lead inhibitor of CD59, rILYd4. K D values are presented as the average of three technical replicates ± SEM. Structures of all peptides and SPR sensograms are presented in Figures S1 and S2. *indicates the presented sequences are the variable regions of these cyclic peptides; each is flanked by an N‐terminal Ac‐D‐Tyr cyclized to a C‐terminal Cys. R6 abundance (%) is defined as (the given number of NGS reads for a given sequence/the total number of reads of unique sequences observed in NGS)*100 following the 6th selection round. c) Representative sensogram of the interaction between CP‐06 with immobilized CD59 by SPR analysis. Inset showing the equilibrium binding curve of CP‐06 to CD‐59. Below in the box are the association and dissociation rate constants of CP‐06. Concentrations are plotted in descending order from 800‐3.1 nM in line with their position on the legend. […] (nM)'; the box with Kon/Koff has no label of its own / ILYd4: the label may be cut off at the left edge (possibly 'rILYd4') / CP-02, KD: 15.3 ± 0.2, small print, 3 or 8 uncertain / CP-03, KD: 23.4 ± 0.7, small print / CP-06, KD: 11.3 ± 0.0, small print, 3 or 8 uncertain / CP-13, KD: 10.8 ± 0.7, small print, 8 or 6 uncertain / ILYd4, KD: 48.3 ± 1.1, small print, 8 and 3 uncertain
The mRNA-display cyclic peptide screen was performed against CD59-biotin by T.E.M: DNA templates for transcription were generated by PCR in a similar manner to that previously described.^2 RNA oligonucleotides were transcribed from the DNA templates using T7 RNA polymerase and purified by phenol/chloroform extraction followed by ethanol precipitation. Oligonucleotide concentrations were determined spectroscopically by absorbance at 260 nm. In the first selection round a 1:1:1 molar ratio of NNK10/NNK11/NNK12 was used. The procedure for selection rounds 2-6 is described below; round 1 was conducted at twice the scale.
RNA encoding for the peptide library ligated to a puromycin-modified oligonucleotide was […] (final [RNA] = 2.5 µM) using a customised PURE express kit (lacking release factor 1 and methionine, supplemented with […] initiator tRNA acylated with N-chloroacetyl-d-tyrosine prepared as previously described)^3 in a final volume of 5.6 µL for 1 hour at 37 °C.
This mixture was incubated at 42 °C for 1 hour before being diluted to 500 µL with PBS (10 mM Na-PO4 pH 7.4, 2.7 mM KCl, 137 mM NaCl) and 0.5 µL taken for subsequent use in qPCR. […]

On to RAWGNRYIAYY, for which the “Percentage Seq I” value is reported as 0.027%, the “Percentage Seq II” value was 0.030%, the “Percentage Average” value was determined as 0.029% and the “Counts Seq I” value stood at 119. For the same sequence, the “Counts Seq II” value was 13.
For the sequence FKYGNSNFVRG, the “Percentage Seq I” value is 0.035%, the “Percentage Seq II” value was determined as 0.039%, the “Percentage Average” value turned out to be 0.037% and the “Counts Seq I” value worked out at 154. In addition, the “Counts Seq II” value is given as 17.
The matching figures for WILGSRWWTQT: 0.032%, 0.030%, 0.031%, 139 and 13.
Regarding FVTGNREHTRG, the “Percentage Seq I” value worked out at 0.025%, the “Percentage Seq II” value was 0.035%, the “Percentage Average” value stood at 0.030% and the “Counts Seq I” value is given as 110. Besides, the “Counts Seq II” value came out at 15.
Regarding IARGDRTFSFG, the “Percentage Seq I” value is 0.013%, the “Percentage Seq II” value amounted to 0.035%, the “Percentage Average” value came to 0.024% and the “Counts Seq I” value was 57. Further, the “Counts Seq II” value worked out at 15.
On to YARGNNASQFF, for which the “Percentage Seq I” value is given as 0.089%, the “Percentage Seq II” value is 0.088%, the “Percentage Average” value is reported as 0.089% and the “Counts Seq I” value is given as 391. Besides, the “Counts Seq II” value amounted to 38.
Take YLSGSSNFARG: the “Counts (raw counts for peptide sequence), Seq I” value stood at 48; the “Counts (raw counts for peptide sequence), Seq II” value amounted to 7; the “Percentage of the pool, averaged across the two sequencing samples” value is 0.014%; the “Percentage of the pool, Seq I” value is 0.011%. The “Percentage of the pool, Seq II” value was 0.016%.
Take YIRGTQDTFLF: the “Counts (raw counts for peptide sequence), Seq I” value was 46; the “Counts (raw counts for peptide sequence), Seq II” value was found to be 7; the “Percentage of the pool, averaged across the two sequencing samples” value is reported as 0.013%; the “Percentage of the pool, Seq I” value worked out at 0.011%. Further, the “Percentage of the pool, Seq II” value was 0.016%.
As for CLRRSFLDNAGV, the “Counts (raw counts for peptide sequence), Seq I” value was 57; the “Counts (raw counts for peptide sequence), Seq II” value is 7; the “Percentage of the pool, averaged across the two sequencing samples” value came out at 0.015%; the “Percentage of the pool, Seq I” value is on record as 0.013%. Moreover, the “Percentage of the pool, Seq II” value was determined as 0.016%.
Turning to SYGGRTFIYAWS, the “Counts (raw counts for peptide sequence), Seq I” value turned out to be 62; the “Counts (raw counts for peptide sequence), Seq II” value was found to be 5; the “Percentage of the pool, averaged across the two sequencing samples” value was determined as 0.013%; the “Percentage of the pool, Seq I” value amounted to 0.014%. Also, the “Percentage of the pool, Seq II” value was 0.012%.
Take TSYGSRVFAYF: the “Percentage Seq I” value is 0.031%, the “Percentage Seq II” value is reported as 0.030%, the “Percentage Average” value is listed as 0.031% and the “Counts Seq I” value is recorded as 135. The “Counts Seq II” value was 13.
Consider FVRGGLYSVLG, for which the “Percentage Seq I” value worked out at 0.020%, the “Percentage Seq II” value is recorded as 0.019%, the “Percentage Average” value came out at 0.019% and the “Counts Seq I” value was determined as 86. In addition, the “Counts Seq II” value is reported as 8.
On to LYGNRDYSFYRP, for which the “Percentage Seq I” value is listed as 0.162%, the “Percentage Seq II” value stood at 0.169%, the “Percentage Average” value worked out at 0.166% and the “Counts Seq I” value is given as 707. Also, the “Counts Seq II” value stood at 73.
Turning to DPWCTPFSNVT, the “Percentage Seq I” value came out at 0.186%, the “Percentage Seq II” value turned out to be 0.209%, the “Percentage Average” value is 0.198% and the “Counts Seq I” value is on record as 815. Moreover, the “Counts Seq II” value came to 90.
The matching figures for SAWGNRQIQYC: 0.039%, 0.028%, 0.033%, 170 and 12.
For VKYGNSNFVRE, the “Percentage Seq I” value is on record as 0.047%, the “Percentage Seq II” value was 0.060%, the “Percentage Average” value is given as 0.054% and the “Counts Seq I” value was determined as 207. Moreover, the “Counts Seq II” value is listed as 26.
The matching figures for TFAHRVGSCQST: 0.019%, 0.026%, 0.022%, 85 and 11.
As for LCYVKGSKDFT, the “Percentage Seq I” value is reported as 0.027%, the “Percentage Seq II” value was found to be 0.019%, the “Percentage Average” value came out at 0.023% and the “Counts Seq I” value came out at 120. In addition, the “Counts Seq II” value is 8.
The matching figures for AVWGSAHDRWE: 0.044%, 0.046%, 0.045%, 193 and 20.
As for TAWGNRQIQYY, the “Counts (raw counts for peptide sequence), Seq I” value was 73; the “Counts (raw counts for peptide sequence), Seq II” value is listed as 7; the “Percentage of the pool, averaged across the two sequencing samples” value is on record as 0.016%; the “Percentage of the pool, Seq I” value stood at 0.017%. The “Percentage of the pool, Seq II” value was determined as 0.016%.
SAWGNWQIQYY: the “Percentage Seq I” value amounted to 0.023%, the “Percentage Seq II” value is given as 0.030%, the “Percentage Average” value came to 0.027% and the “Counts Seq I” value stood at 102. The “Counts Seq II” value was 13.
In the case of CFSRRVTYPHQV, the “Counts (raw counts for peptide sequence), Seq I” value amounted to 31; the “Counts (raw counts for peptide sequence), Seq II” value is given as 8; the “Percentage of the pool, averaged across the two sequencing samples” value was determined as 0.013%; the “Percentage of the pool, Seq I” value is 0.007%. Besides, the “Percentage of the pool, Seq II” value is recorded as 0.019%.
As for HCWVRGSRSYT, the “Percentage Seq I” value was found to be 0.022%, the “Percentage Seq II” value came to 0.021%, the “Percentage Average” value is 0.022% and the “Counts Seq I” value was found to be 97. For the same sequence, the “Counts Seq II” value is recorded as 9.
For CFSPRVTEHST, the “Counts (raw counts for peptide sequence), Seq I” value is 62; the “Counts (raw counts for peptide sequence), Seq II” value amounted to 8; the “Percentage of the pool, averaged across the two sequencing samples” value turned out to be 0.016%; the “Percentage of the pool, Seq I” value stood at 0.014%. In addition, the “Percentage of the pool, Seq II” value was found to be 0.019%.
Regarding HVFGNRSFTRG, the “Percentage Seq I” value worked out at 5.324%, the “Percentage Seq II” value is recorded as 5.834%, the “Percentage Average” value was 5.579% and the “Counts Seq I” value came out at 23292. For the same sequence, the “Counts Seq II” value was determined as 2514.
For the sequence HVYGNRSFTRG, the “Counts (raw counts for peptide sequence), Seq I” value was determined as 97; the “Counts (raw counts for peptide sequence), Seq II” value was 5; the “Percentage of the pool, averaged across the two sequencing samples” value worked out at 0.017%; the “Percentage of the pool, Seq I” value worked out at 0.022%. The “Percentage of the pool, Seq II” value came out at 0.012%.
